Results from article PMC9781407, “β-Xylosidase SRBX1 Activity from Sporisorium reilianum and Its Synergism with Xylanase SRXL1 in Xylose Release from Corn Hemicellulose” (Journal of Fungi, 2022).

Substrate: O=[N+]([O-])c1ccc(O[C@@H]2OC[C@@H](O)[C@H](O)[C@H]2O)cc1
Experiment: purified protein
Type: biochemical, Sporisorium reilianum
Settings: 50 mM-type acetate buffer assay, pH 4, substrate 1-7 mM, temperature not stated for the kinetics

B1: β-xylosidase SRBX1 (Sporisorium reilianum SRZ2) (protein)
chain: ASLEHLNMLFHTRQADASNSTDSSSVNWNISSSDNSALATAPLAGTFYRGGPALADANSPFHPVTGNGGWEWAVVKARSVVGQLTLEEKVNLTAGITGGRCEGTLGRVDRFGIPELCFQDGPAGFRASDFVTVFPAGVTTAATWNRDLIYKRAAALGAEFVAKGVNVHLGPVTGGPLGRSPFQGRNWEGFGPDPYLHGEAAYYTVSGTQSAGVISTAKHFLAYEQETYRQLYAASDPFTLNPNNNTELTYSANLDDRTLHELYLWPFMNAVRAGTGALVCVYNRVNSTQGCESSKLLNEILKDELDYQGFVVTDWSAAFNTSNTYNGGSDVVMPGGMTGGYKNLVGGSDLVRALNAGEVKIERINDGITRLLTQWYLRGQDKGYPTVSYKDGYQNTIFNGTVVNEHRDVQGDHRKIVKEIGEEAVTLIYNKRSNKAGPQGNTDFGLGLPLAKKARVAVFGSDAGPNPYGANACQDWIGLGSQLCPANATSNGTQAVGWGSGAGFFPYLIDPLAGISEVAKENRGAVLHNLNDVGDDKNQMYVKQQAGLADASLVFVQARSGEDSDRHSLRLDADGDELIKLVASQSNNTIVVMHTVGPVLMGDWFDHPNITALVLPHLPGQESGSSLARVLYGDVNPSGKMPYSMLSDEDAKRYPKIVGSPASDPQVDFYDGLYIDYRAWDKMGLKPLIPFGHGISYTNYSYSNLHIQKAGDNCYAPSAFSGSFKSDKQPGGPGSLFQYLVEVSADVQNVGAMAGDEVAQLYVGYPEAANAPIKQLRGFDKVQGLEPGAASKQATFKLAKRDFSVWDVVKQKFEVVDGEYKIWVGKSSRMSDLTLKGSVTMQNGMVVGMSS
notes: native extracellular enzyme purified from S. reilianum culture supernatant by gel filtration; theoretical precursor 874 aa, signal peptide 1-23; monomer; 12 theoretical glycosylation sites; no tag
  Km: 2500 µM
